Data reported in patent US9885687B2, “Apparatus and method for evaluating characteristics of target molecules” (Dynamic Biosensors GmbH, priority 2010, dated 2018).

Assay: voltage response curve (normalized fluorescence versus static substrate potential) to determine target charge
Assay type: physicochemical
Details: protein bound to probe DNA
From the text: Note that so far no time dependence has been introduced, since the electric field has been kept stationary. However, with the above equation, it is possible to calculate the fluorescence signal for different values of the applied static potential Φ. The corresponding curve is referred to as “voltage response curve” in the following.
Further note that the model so far only accounted for the free probe molecule, i.e. the double-stranded DNA, but not for any target molecule. As long as the stationary state is concerned, i.e. without a time-dependent electrical field, the target molecule will mainly affect the results due to a possible charge thereof. In fact, based on the above understanding of the stochastic behaviour of the probe molecule, the inventors conjectured that it should be possible to qualitatively and quantitatively determine the charge of the target molecule from the voltage response curve.
The corresponding voltage response curve is shown by filled circles, while the voltage response curve of the free DNA is again shown by open diamonds. It can be seen that the voltage response curve in presence of the avidin also differs noticeably from that of the DNA alone.

Substance | charge of the target molecule
streptavidin: negatively charged protein bound to the probe DNA | negatively charged
avidin: positively charged protein bound to the probe DNA | positively charged
